Results taken from paper doi:10.1101/2023.02.27.530324v2.

Tests used:
[1] = substrate: CCCCCC=O; experiment: in vivo luminescence of E. coli cells, aldehyde titration, nonlinear fit; format: cell-based, Photorhabdus luminescens; details: whole E. coli K12 MG1655 pABX cells; apparent constant; cellular FMNH2 and O2
[2] = substrate: CCCCCCCCC=O; experiment: as above; format: cell-based, Photorhabdus luminescens; details: whole E. coli K12 MG1655 pABX cells; apparent constant; cellular FMNH2 and O2

B1: PlLuxAB (Photorhabdus luminescens) (protein)
chain: MKFGNFLLTYQPPQFSQTEVMKRLVKLGRISEECGFDTVWLLEHHFTEFGLLGNPYVAAAYLLGATKKLNVGTAAIVLPTAHPVRQLEDVNLLDQMSKGRFRFGICRGLYNKDFRVFGTDMNNSRALAECWYGLIKNGMTEGYMEADNEHIKFHKVKVNPAAYSRGGAPVYVVAESASTTEWAAQFGLPMILSWIINTNEKKAQLELYNEVAQEYGHDIHNIDHCLSYITSVDHDSIKAKEICRKFLGHWYDSYVNATTIFDDSDQTRGYDFNKGQWRDFVLKGHKDTNRRIDYSYEINPVGTPQECIDIIQKDIDATGISNICCGFEANGTVDEIIASMKLFQSDVMPFLKEKQRSLLY
B1 showed a Km [1] of 7 ± 2 mM and a Km [2] of 0.025 ± 0.002 mM.
